Laboratory results: US20260061042A1, “POLYNUCLEOTIDE COMPOSITIONS AND USES THEREOF” (Pfizer Inc., priority 2024, published 2026)
Substitutions are numbered along the chain they refer to. Names and notes keep the numbering of the source. Values joined by “and” are separate entries in the source; they are usually repeats but may differ in a detail not shown here. Equal entries are not always repeated. “Also recorded” adds a separate entry of the source.

B1: PapG^LD N96S R170A: PapG lectin domain N96S with R170A ligand binding site mutation; SEQ ID NO: 23 (protein)
chain: METDTLLLWVLLLWVPGSTGWNNIVFYSLGNVNSYQGGNVVITQRPQFITSWRPGIATVTWNQCNGPEFADGSWAYYREYIAWVVFPKKVMTKNGYPLFIEVHNKGSWSEENTGDSDSYFFLKGYKWDERAFDAGNLCQKPGETTRLTEKFNDIIFKVALPADLPLGDYSVTIPYTSGIQRHFASYLGAAFKIPYNVAKTLPRENEMLFLFKNIGG
B2: PapG^LD N96S K172A: PapG lectin domain N96S with K172A ligand binding site mutation; SEQ ID NO: 24 (protein)
chain: B1 chain with A190R, K192A
B3: PapG^LD N96S W107A: PapG lectin domain N96S with W107A ligand binding site mutation; SEQ ID NO: 22 (protein)
chain: B1 chain with W127A, A190R

Assays:
[1] = target: T1, E. coli CFT073 PapG-II lectin domain PapGLD variant N96S G104A, SEQ ID NO: 16 (Escherichia coli, UniProt A0A0H2VAQ6, G124A/N116S); assay: SYPRO orange thermal shift with GbO3; assay type: binding; details: shift in melting temperature in the presence of GbO3 vs apo; 3 replicates; PBS pH 7.4, 4% DMSO
T1 sequence (A0A0H2VAQ6 with tags, fused parts or gaps N116S/G124A): B1 chain with G124A, A190R
Description: (§1) PapG proteins were added to assay buffer (consisting of 4% DMSO, 1:1000 dilution of SYPRO orange (Invitrogen S6650) in PBS pH 7.4) at a final concentration of […]. Melt curves were analyzed in a QuantStudio 6 Real-time PCR system (ThermoFisher) using a dissociation protocol from 25° C. to 99° C., at 0.05° C./second. ROX was specified as the reporter.
(§2) The thermal stability of PapG WT and mutant proteins were determined using a SYPRO orange thermal shift-based differential scanning fluorimetry assay, wherein Tm designates the temperature at which 50% of the protein is unfolded. Non-covalent ligands often stabilize protein targets upon specific binding, resulting in an increase in protein melting temperature. Tm were therefore determined in the presence and absence of GbO3 for PapG, and the difference in Tm (ΔTm) of protein in the presence of ligand relative to the apo form was calculated.

[2] = system: E. coli strain CFT073 (PapG-dependent agglutination of human red blood cells); assay: PapG hemagglutination (HA) assay; assay type: cell-based, Escherichia coli CFT073; human red blood cells; details: pre-incubation of E. coli CFT073 WT strain with GbO3, then human RBCs
Description: (§3) A PapG HA assay was developed based on procedures described previously. WT E. coli strain CFT073 bacteria were streaked out from a frozen glycerol stock for single colonies on a tryptic soy blood agar plate. To grow bacteria for use in the HA assay, bacteria were cultured overnight in Luria Bertani liquid media at 37° C. and shaking at 230 rpm. The next morning, bacteria were washed once with 1×PBS and normalized to an OD540 of 1.0 in PBS. 30 μL of bacteria were then placed in a V-bottom 96-well plate (Corning, 3894) and serially diluted across the plate. […] After this incubation, 60 μL of a 1.75% red blood cell (Human Red Blood Cells, Washed, Rockland Immunochemicals R407-0050) solution (diluted from 10% stock using 1×PBS) was added to all the wells in the plate. The plate was incubated for 2 hours at 4° C. and then imaged using a light box and camera or ImageQuant System. To collect quantitative data, assay plates were analyzed using a Clariostar instrument. Absorbance was measured at a wavelength of 540 nm, which was the maximum absorbance observed using an RBC only control well, and a read diameter of 4 mm within each well. Absorbance was normalized using blank controls (1×PBS only).
PapG mediates the ability of E. coli to agglutinate human red blood cells (RBC).

[3] = system: E. coli strain CFT073 agglutination of human red blood cells; assay: PapG hemagglutination (HA) assay; assay type: cell-based; details: pre-incubation with E. coli CFT073 WT strain, human RBC
Description: 16. PapG Hemagglutination (HA) Assay
as §3
7. Development of a Hemagglutination (HA) Assay as a Functional Assay to Evaluate Sera from PapG Immunized Animals. […]

[4] = PapG Luminex ligand binding assay with globoside GbO4; details: result in words
Description: 9. PapG Ligand Binding Assay with Globoside GbO4
To determine the ability of PapGLD mutants to bind the porcine derived globotetraosyl ceramide ligand GalNAc-Gal-Gal-Glc-ceramide (GbO4), a Luminex ligand binding assay was developed. Surfactant Protein-A (SP-A) was coupled to the surface of MagPlex beads by EDC/NHS, to capture the lipid tail of the globotetraosyl ceramide. The Globotetraosyl ceramide/SP-A beads were incubated with an eight-point threefold titration of PapG in a 96 well flat bottom white plate with final volume of 100 microliters of 50 mM HEPES PH 7.4, 10 mM NaCl, 0.0005% Tween 20 shaking at 300 rpm, 4° C. overnight. After 20-24 hours the ligand binding plates were read on a FlexMap 3D plate reader for measurement of well-bead region specific MFI. Ligand binding equilibrium dissociation constants (Kd) were calculated assuming one site specific binding and interpolated using non-linear curve fitting (GraphPad Prism) as the ligand concentration needed to achieve half-maximal binding. The Luminex derived apparent Kd values are based on approximately fifty bead counts per assay sample.
(§4) Binding of PapG proteins to GbO2 or GbO4 ligands was evaluated using a Luminex platform wherein ligands were coupled to MagPlex beads via surfactant protein A (for […]) or directly using […] conjugation (for […]). This assay was used to rank order binding affinities of the mutants, reported as Kd values interpolated from protein antigen titration curves (Table 7).

[5] = Thermal shift (SYPRO orange) melting temperature, apo form; assay type: physicochemical; details: apo state, PBS pH 7.4
Description: as §1, §2

[6] = Thermal shift in the presence of GbO3; assay type: binding; details: in the presence of GbO3 relative to the apo form
Description: as §1
The thermal stability of PapG WT and mutant proteins were determined using a SYPRO orange thermal shift-based differential scanning fluorimetry assay, wherein Tm designates the temperature at which 50% of the protein is unfolded. Non-covalent ligands often stabilize protein targets upon specific binding, resulting in an increase in protein melting temperature.

[7] = PapG Luminex ligand binding assay with globoside compound GbO2Mpo; details: result in words
Description: 10. PapG Ligand Binding Assay with Globoside Compound GbO2Mpo
To determine Luminex ligand binding affinities of PapG mutants for the synthetic globoside ligand Gal-Glc-phenoxy-octyl-amine (GbO2Mpo), a Luminex ligand binding assay was developed based on the direct coupling of the amine reactive globoside ligand to the EDC/NHS activated carboxylic surface of MagPlex beads. Synthesis of GbO2Mpo ligand with an octyl amine linker (for coupling to beads) was performed via methods described previously. The GbO2Mpo beads were incubated with an 8-point, threefold titration of PapG in a 96-well flat bottom white plate with final volume of 100 μl of 50 mM HEPES pH 7.4, 10 mM NaCl, 0.0005% Tween 20 shaking at 300 rpm, 4° C. overnight. After 20-24 hours the ligand binding plates were read on a FlexMap 3D plate reader for measurement of well-bead region specific MFI.
as §4

| Molecule | ΔTm (Average) [1] | inhibition of hemagglutination (in words) [2] | inhibition of hemagglutination [3] | binding to GbO4 ligand [4] | Tm (Ave.) [5] | ΔTm (Average) [6] | binding to GbO2 ligand [7] |
| --- | --- | --- | --- | --- | --- | --- | --- |
| Globotriaosylceramide [GbO3] [listing 1 of 2 here] | < 0.5 °C and 0.22 °C | efficiently blocks agglutination of RBCs; also recorded: concentration-dependent inhibition of hemagglutination |  |  |  |  |  |
| Globotriaosylceramide [GbO3] [listing 2 of 2 here] |  |  | efficiently blocks agglutination of RBCs; also recorded: concentration-dependent inhibition of hemagglutination |  |  |  |  |
| B1 |  |  |  | prevent binding to GbO4; also recorded: lower the binding affinity; also recorded: eliminate ligand binding | 55.83 °C | 0.33 °C |  |
| B2 |  |  |  | prevent binding to GbO4; also recorded: reduced binding; also recorded: lower the binding affinity; also recorded: eliminate ligand binding | 56.38 °C | 0.42 °C | reduced binding |
| B3 |  |  |  | prevent binding to GbO4; also recorded: lower the binding affinity; also recorded: eliminate ligand binding | 62.64 °C | 0.22 °C |  |
